# Measurements: patent US20220177531A1 (NEW YORK UNIVERSITY, published 2022)
# B1: Monobody 12VC1 (designed binder)
# chain: VSSVPTKLEVVAATPTSLLISWDAPAVTVFFYVITYGETGHGVGAFQAFKVPGSKSTATISGLKPGVDYTITVYARGYSKQGPYKPSPISINYRT
# Tests used:
# [1] = target: KRAS(G12V) in cells (endogenous in PATU8902 and H441) (UniProt P01116-2 1-185, limits assumed)
# KRAS(G13D), GDP-bound = target: T1, KRAS(G13D), GDP-bound (Meleagris gallopavo (Wild turkey), UniProt P79800 1-174, GDP bound non-covalently; biotin on the N-terminal Avi-tag, and the tag is not in the letters); assay: yeast display titration, flow cytometry
# T1 construct: Same protein as m19, loaded with GDP
# KRAS(G12D), GDP-bound = target: T2, KRAS(G12D), GDP-bound (Meleagris gallopavo (Wild turkey), UniProt P79800 1-174, GDP bound non-covalently; biotin on the N-terminal Avi-tag, and the tag is not in the letters); assay: yeast display titration, flow cytometry
# T2 construct: Same protein as m17, loaded with GDP
# KRAS(G13D), GTPγS-bound = target: T3, KRAS(G13D), GTPγS-bound (Meleagris gallopavo (Wild turkey), UniProt P79800 1-174, GTPγS bound non-covalently; biotin on the N-terminal Avi-tag, and the tag is not in the letters); assay: yeast display titration, flow cytometry
# T3 construct: Loaded with GTPγS; tagged and biotinylated in the yeast-display assay
# KRAS(G12D), GTPγS-bound = target: T4, KRAS(G12D), GTPγS-bound (Meleagris gallopavo (Wild turkey), UniProt P79800 1-174, GTPγS bound non-covalently; biotin on the N-terminal Avi-tag, and the tag is not in the letters); assay: yeast display titration, flow cytometry
# T4 construct: Loaded with GTPγS; tagged and biotinylated in the yeast-display assay
binder,measurement,setting,value
B1,FoldChange,[1],1360
same,binding result,"KRAS(G13D), GDP-bound",no binding (tested: 100 nM)
same,binding result,"KRAS(G12D), GDP-bound",no binding (tested: 100 nM)
same,binding result,"KRAS(G13D), GTPγS-bound",no binding (tested: 100 nM)
same,binding result,"KRAS(G12D), GTPγS-bound",no binding (tested: 100 nM)
